Reference: patent publication US20220194999A1

B1: KRAS.G12C mutant peptide … (peptide)
peptide: LVVVGACGV
modifications: here or on the partner: biotinylated heavy chain
B2: KRAS.G12V mutant peptide … (peptide)
peptide: LVVVGAVGV
modifications: here or on the partner: biotinylated heavy chain

Target: HLA-A*02:01 class I complex (conditional p*HLA*02:01, biotinylated heavy chain with beta2-microglobulin) (human)
Assay: UV peptide exchange, HLA class I ELISA, % of Pos peptide
Conditions: remark: other sources report otherwise

Row | Binder | Average % [%] | Exch I (%) | Exch II (%) | average relative binding (%)
1 | B1 | 7 | 6.5 | 7.5 | < 15
2 | B2 | 4.5 | 4.3 | 4.6 | < 15
